Laboratory results published in US20250000945A1, “Suppression of Neurodegeneration with Zinc Transporter Protein 7” (The Regents of the University of California, priority 2021, published 2025).

What was measured:
border cells = assay: Border cell migration in stage 10 egg chambers expressing Catsup RNAi (rescue by co-expressed transgenes); assay type: in vivo, Drosophila; conditions: co-expressed with Catsup RNAi in border cells
Text: Border cell clusters are composed of 4-6 migratory cells that surround and carry two non-migratory polar cells. Expression of a Catsup RNAi line in outer, migratory border cells using fruitlessGal4^51 inhibited migration (FIG. 2A). The defect was rescued by co-expression of UAS-CatsupV5 (FIG. 2B). Reduction of Catsup::GFP confirmed the effectiveness of the RNAi (FIGS. 2C, C′ and 2D, D′). Border cell migration was also impaired when Catsup RNAi was driven by c306Gal4 (FIG. 2E), which is expressed in both polar and migratory cells.
ZIP7 resides in the ER membrane and transports Zn^2+ from the ER to the cytosol^64. To test whether the Zn^2+ transporter activity of Catsup was important for border cell migration, we introduced point mutations, H315A and H344A, which replace histidine residues that are required for Zn^2+ transport and are conserved between Catsup, ZIP7 and a more distant family member from Arabidopsis IRT1. […] We generated transgenic flies expressing the mutants under Gal4/UAS control and included a V5 tag so that we could monitor protein abundance and localization. We then co-expressed each of these RNAi-resistant transgenes with CatsupRNAi and evaluated protein expression and border cell migration (FIGS. 5B-5E). […] All the proteins were stably expressed and correctly localized to the ER (FIGS. 5B-5E), therefore the lack of rescue was likely a consequence of impaired transporter activity rather than impaired expression, localization, or another function. […] From these experiments, we conclude that Zn^2+ transport is an essential function of Catsup in promoting ERAD.
Catsup mutant fly was generated by ethyl methanesulfonate (EMS) mutagen^37. The mutation results in glycine(G) to aspartic acid(D) replacement at amino acid 178. The FLP/FRT system was used to generate the Catsup^G178D homozygous mutant clones by combining FRT40A-Catsup^G178D with hsFLP12,yw;ubi:GFPnls, FRT40A or hsFLP12,yw;ubi:RFPnls, FRT40A/(CyO). Catsup::GFP expression pattern visualized by the line from VDRC 318542 in the fTRG stocks library. The UAS-CatsupRNAi transgenic line is from VDRC 100095 P{KK103630}VIE-260B. Wild type rescue w[*]; sna[Sco]/CyO; P{w[+mCJ=UAS-Catsup. V5}6 Bloomington 63229. Additional transgenic Drosophila stocks used: UAS-wRNAi/Cyo is a lab stock, UAS-PleRNAi Bloomington 25796 y[1] v[1]; P{y[+t7.7] v[+t1.8]=TRiP.JF01813}attP2, UAS-Ple is Bloomington 37539 w[*]; P{w[+mC]=UAS-ple.T}331f2, O-fucosyltransferasel Bloomington 9376 P{UAS-O-fut.}]1.1, UAS-Notch.Intracellular.Domain on third chromosome was a gift from Artavanis-Tsakonas lab^71. The ER stress marker UAS-Xbp1-EGFP.HG Bloomington 60731 w[*]; P{w[+mC]=UAS-Xbp1.EGFP.HG}3, UAS-HSC70-3 Bloomington 5843 w[126]; P{w[+mC]=UAS-Hsc70-3. WT}B. Catsup point mutations were cloned into vector pUASt-attb with forward primer ctctgaatagggaattggg[…] (SEQ ID NO:1) and reverse primer ccgcagatctgttaacgtca[…] (SEQ ID NO:2). The vector was injected to attp2 flies y1 w67c23; P{CaryP}attP2 by BestGene Inc.
When generating UAS-Catsup-point-mutations, we designed the construct so it cannot be targeted by the CatsupRNAi sequences by substituting redundant codons for the same amino acids within the region targeted by the RNAi. The RNAi resistant sequence is below with nucleic acid substitutions in lower case:
Point mutations were designed by changing codons at the following site CatsupH183A (CAC to GCC), CatsupH187A (CAT to GCT), CatsupH315A (CAT to GCT), CatsupH344A ([…]). […]

Notch and EGFR = assay: Intracellular accumulation of Notch and EGFR in mosaic clones expressing CatsupRNAi; assay type: in vivo, Drosophila; conditions: mosaic expression with CatsupRNAi
Text: In wing imaginal disc epithelia, multiple transmembrane receptor proteins, including Notch and EGFR, accumulate abnormally in Catsup mutant cells^40. We similarly found abnormal intracellular accumulation of Notch in follicle cells generally (FIG. 3D, D′) and border cells specifically (FIG. 3E, E′) upon Catsup knockdown. […] As in imaginal discs, EGFR also accumulated abnormally in Catsup RNAi-expressing border cells (FIG. 3G, G′) and epithelial follicle cells (FIG. 3H, H′), whereas E-Cadherin was unaffected (FIG. 31, I′). From these observations, we conclude that Catsup prevents intracellular accumulation of particular transmembrane proteins and promotes Notch signaling, migration and survival in multiple cell types and organisms.
ZIP7 resides in the ER membrane and transports Zn^2+ from the ER to the cytosol^64. To test whether the Zn^2+ transporter activity of Catsup was important for border cell migration, we introduced point mutations, H315A and H344A, which replace histidine residues that are required for Zn^2+ transport and are conserved between Catsup, ZIP7 and a more distant family member from Arabidopsis IRT1. […] We then co-expressed each of these RNAi-resistant transgenes with CatsupRNAi and evaluated protein expression and border cell migration (FIGS. 5B-5E). […]

| Molecule | rescue of border cell migration defect (border cells) | rescue of accumulation of Notch and EGFR (Notch and EGFR) |
| --- | --- | --- |
| Catsup^H187A: V5-tagged RNAi-resistant Catsup point mutant that does not disrupt Zn2+ transport (control) (protein, UniProt Q9V3A4 1-449, looked up, variant H187A, V5 tag) Protein catecholamines up: MAKQVADYQCSKLQLYQKLALVVILGAVLFSLPALCAGQGNPSFKYSREANENFDPQKAPRAEHHHHHDHDHDHGHHHHGHDHDHDHDHGHDHGHHHHGHDHDHDHDHGHHHHGHDERHTKAKPDLDMSTIWLHSIGSTLLISAAPFVLLYIIPLDNSEAMKPRLKVLLAFASGGLLGDAFLHLIPAATHPHSHGEHGHDHGHDHHHHHDGEEHEHGHSHDMSIGLWVLGGIIAFLSVEKLVRILKGGHGGHGHSHGAPKPKPVPAKKKSSDKEDSGDGDKPAKPAKIKSKKPEAEPEGEVEISGYLNLAADFAHNFTDGLAIGASYLAGNSIGIVTTITILLHEVPHEIGDFAILIKSGCSRRKAMLLQLVTALGALAGTALALLGAGGGDGSAPWVLPFTAGGFIYIATVSVLPELLEESTKLKQSLKEIFALLTGVALMIVIAKFE | rescue border cell migration to nearly wild type levels | did |
| Catsup^H183A: V5-tagged RNAi-resistant Catsup point mutant that does not disrupt Zn2+ transport (control) (protein, UniProt Q9V3A4 1-449, looked up, variant H183A, V5 tag) Protein catecholamines up: MAKQVADYQCSKLQLYQKLALVVILGAVLFSLPALCAGQGNPSFKYSREANENFDPQKAPRAEHHHHHDHDHDHGHHHHGHDHDHDHDHGHDHGHHHHGHDHDHDHDHGHHHHGHDERHTKAKPDLDMSTIWLHSIGSTLLISAAPFVLLYIIPLDNSEAMKPRLKVLLAFASGGLLGDAFLALIPHATHPHSHGEHGHDHGHDHHHHHDGEEHEHGHSHDMSIGLWVLGGIIAFLSVEKLVRILKGGHGGHGHSHGAPKPKPVPAKKKSSDKEDSGDGDKPAKPAKIKSKKPEAEPEGEVEISGYLNLAADFAHNFTDGLAIGASYLAGNSIGIVTTITILLHEVPHEIGDFAILIKSGCSRRKAMLLQLVTALGALAGTALALLGAGGGDGSAPWVLPFTAGGFIYIATVSVLPELLEESTKLKQSLKEIFALLTGVALMIVIAKFE | rescue border cell migration to nearly wild type levels | did |
| Catsup^H315A: V5-tagged RNAi-resistant Catsup point mutant replacing a histidine required for Zn2+ transport (protein, UniProt Q9V3A4 1-449, looked up, variant H315A) Protein catecholamines up: MAKQVADYQCSKLQLYQKLALVVILGAVLFSLPALCAGQGNPSFKYSREANENFDPQKAPRAEHHHHHDHDHDHGHHHHGHDHDHDHDHGHDHGHHHHGHDHDHDHDHGHHHHGHDERHTKAKPDLDMSTIWLHSIGSTLLISAAPFVLLYIIPLDNSEAMKPRLKVLLAFASGGLLGDAFLHLIPHATHPHSHGEHGHDHGHDHHHHHDGEEHEHGHSHDMSIGLWVLGGIIAFLSVEKLVRILKGGHGGHGHSHGAPKPKPVPAKKKSSDKEDSGDGDKPAKPAKIKSKKPEAEPEGEVEISGYLNLAADFAANFTDGLAIGASYLAGNSIGIVTTITILLHEVPHEIGDFAILIKSGCSRRKAMLLQLVTALGALAGTALALLGAGGGDGSAPWVLPFTAGGFIYIATVSVLPELLEESTKLKQSLKEIFALLTGVALMIVIAKFE | neither Castup^H344A nor Catsup^H315A provided significant rescue | – |
| O-fucosyltransferase-1: Notch specific chaperone, overexpressed from a UAS transgene (protein, UniProt Q9V6X7 24-402, looked up) GDP-fucose protein …: QLGGDPNGYLTYCPCMGRFGNQADHFLGSLAFAKALNRTLILPPWVEYRRGELRSRQVPFNTYFEVEPLKEYHRVITMADFMWHLADDIWPESERVSFCYKERYSLQQEKNDPDKPNCHAKDGNPFGPFWDTFHIDFVRSEFYAPLHFDVHHSNEAAKWQTKYPAESYPVLAFTGAPASFPVQLENCKLQRYLQWSQRYREASKDFIREQLPRGAFLGIHLRNGIDWVRACEHVKDSQHLFASPQCLGYKNERGALYPELCMPSKEAIIRQLKRTIKNVRQTQPDNEIKSVFVASDSNHMIGELNTALSRMGISVHKLPEDDPYLDLAILGQSNHFIGNCISSYSAFEKRERDVHGFPSYFWGFPKEKDRKHTNVHEEL | neither NICD expression nor overexpression of the Notch specific chaperone O-fucosyltransferase-1^58 was sufficient to rescue Catsup RNAi | – |
